Measurements published in patent US20150152406A1 (NBE THERAPEUTICS, published 2015).

Target: T1, 6xHis-tagged, recombinant human CD30 (Sino Biological Inc., order #10777-H08H) (human, UniProt P28908 19-379)
T1 construct: Bought soluble reagent; It was detected with biotinylated anti-His-tag antibody and streptavidin-PE; also called CD30 antigen; CD30-6xHis
T1 sequence: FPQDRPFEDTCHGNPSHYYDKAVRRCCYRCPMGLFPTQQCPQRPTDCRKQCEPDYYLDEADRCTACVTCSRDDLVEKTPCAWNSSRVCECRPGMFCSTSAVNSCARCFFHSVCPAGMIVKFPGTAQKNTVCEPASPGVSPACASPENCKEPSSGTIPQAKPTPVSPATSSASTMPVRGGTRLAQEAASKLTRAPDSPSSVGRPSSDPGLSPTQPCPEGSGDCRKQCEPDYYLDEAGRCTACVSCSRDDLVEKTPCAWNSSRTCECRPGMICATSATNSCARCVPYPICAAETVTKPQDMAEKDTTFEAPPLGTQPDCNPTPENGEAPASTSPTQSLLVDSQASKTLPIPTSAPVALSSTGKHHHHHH
Assay: flow cytometry; 63-12 cells displaying anti-CD19 IgG as background, stained with His-tagged CD30 / anti-His-biotin / strep-PE
Description: After the final FACS staining, the cells were again washed twice in ice-cold PBS, 2% FCS, and then resuspended in 1.0 ml PBS, 2% FCS, after which the cells were subjected to FACS analysis and cell sorting of Ig-kappaLC/CD30 positive cells (see FIG. 13).

binding result: no binding (tested: 0.1 µg CD30 in 1 ml)
B1: humanized anti-human CD19 antibody hBU12, membrane bound human IgG1 on the surface of 63-12 proB cells (antibody, V domains shown)
VH: QVQLQESGPGLVKPSQTLSLTCTVSGGSISTSGMGVGWIRQHPGKGLEWIGHIWWDDDKRYNPALKSRVTISVDTSKNQFSLKLSSVTAADTAVYYCARMELWSYYFDYWGQGTLVTVSS
VL: EIVLTQSPATLSLSPGERATLSCSASSSVSYMHWYQQKPGQAPRLLIYDTSKLASGIPARFSGSGSGTDFTLTISSLEPEDVAVYYCFQGSVYPFTFGQGTKLEIK
notes: also called anti-CD19 mAb hBU12; anti-CD19 mAb
